# Measurements from article PMC6987189, “Native aggregation is a common feature among triosephosphate isomerases of different species” (Scientific Reports, 2020).
# B1: TcTIM (Trypanosoma cruzi) (protein)
# chain: MASKPQPIAAANWKCNGSESLLVPLIETLNAATFDHDVQCVVAPTFLHIPMTKARLTNPKFQIAAQNAITRSGAFTGEVSLQILKDYGISWVVLGHSERRLYYGETNEIVAEKVAQACAAGFHVIVCVGETNEEREAGRTAAVVLTQLAAVAQKLSKEAWSRVVIAYEPVWAIGTGKVATPQQAQEVHELLRRWVRSKLGTDIAAQLRILYGGSVTAKNARTLYQMRDINGFLVGGASLKPEFVEIIEATK
# notes: recombinant, E. coli BL21(DE3)pLysS, pET-3a, purified; dimer plus higher aggregates
# B2: EhTIM (Entamoeba histolytica HM-1:IMSS) (protein)
# chain: MSARKFVVGGNWKCNGTLASIETLTKGVAASVDAELAKKVEVIVGVPFIYIPKVQQILAGEANGANILVSAENAWTKSGAYTGEVHVGMLVDCQVPYVILGHSERRQIFHESNEQVAEKVKVAIDAGLKVIACIGETEAQRIANQTEEVVAAQLKAINNAISKEAWKNIILAYEPVWAIGTGKTATPDQAQEVHQYIRKWMTENISKEVAEATRIQYGGSVNPANCNELAKKADIDGFLVGGASLDAAKFKTIINSVSEKF
# notes: recombinant, E. coli BL21(DE3)pLysS, plasmid given as pRET, purified; dimer plus higher aggregates
# B3: PfTIM (Plasmodium falciparum) (protein)
# chain: MARKYFVAANWKCNGTLESIKSLTNSFNNLDFDPSKLDVVVFPVSVHYDHTRKLLQSKFSTGIQNVSKFGNGSYTGEVSAEIAKDLNIEYVIIGHFERRKYFHETDEDVREKLQASLKNNLKAVVCFGESLEQREQNKTIEVITKQVKAFVDLIDNFDNVILAYEPLWAIGTGKTATPEQAQLVHKEIRKIVKDTCGEKQANQIRILYGGSVNTENCSSLIQQEDIDGFLVGNASLKESFVDIIKSAM
# notes: recombinant, E. coli BL21(DE3)pLysS, pTRC99A, purified (extra low-mass band on SDS-PAGE); dimer plus higher aggregates
# B4: TsTIM (Taenia solium) (protein)
# chain: MTRKLFVGGNWKMNGSYSHINTFFDTLQKADTDPNADIVIGVPACYLKYAQDKAPKGIKIAAENCYKVGSGAFTGEISTEMIKDCGCEWVILGHSERRHIFGESNELIGEKVKHALDSGLNVIPCIGELLSEREAGKTNDVCFAQMDAIAKNVPSKEAWDKVVIAYEPVWAIGTGKTATPAQAQEVHKVVRDWIRKHVDAGIADKVRILYGGSVTASNAKDLGTQPDVDGFLVGGASLKPDFITIINARR
# notes: recombinant, E. coli BL21(DE3)pLysS, pRSET (His tag), purified; dimer plus higher aggregates
# B5: LmTIM (Leishmania mexicana) (protein)
# chain: MSAKPQPIAAANWKCNGTTASIEKLVQVFNEHTISHDVQCVVAPTFVHIPLVQAKLRNPKYVISAENAIAKSGAFTGEVSMPILKDIGVHWVILGHSERRTYYGETDEIVAQKVSEACKQGFMVIACIGETLQQREANQTAKVVLSQTSAIAAKLTKDAWNQVVLAYEPVWAIGTGKVATPEQAQEVHLLLRKWVSENIGTDVAAKLRILYGGSVNAANAATLYAKPDINGFLVGGASLKPEFRDIIDATR
# notes: recombinant, E. coli BL21(DE3)pLysS, pET-3aHIS (His tag), purified; dimer plus higher aggregates
# B6: TbTIM (Trypanosoma brucei brucei) (protein)
# chain: MSKPQPIAAANWKCNGSQQSLSELIDLFNSTSINHDVQCVVASTFVHLAMTKERLSHPKFVIAAQNAIAKSGAFTGEVSLPILKDFGVNWIVLGHSERRAYYGETNEIVADKVAAAVASGFMVIACIGETLQERESGRTAVVVLTQIAAIAKKLKKADWAKVVIAYEPVWAIGTGKVATPQQAQEAHALIRSWVSSKIGADVAGELRILYGGSVNGKNARTLYQQRDVNGFLVGGASLKPEFVDIIKATQ
# notes: as for B1
# B7: TtTIM (Thermus thermophilus HB8) (protein)
# chain: MRRVLVAGNWKMHKTPSEARVWFAELKRLLPPLQSEAAVLPAFPILPVAKEVLAETQVGYGAQDVSAHKEGAYTGEVSARMLSDLGCRYAIVGHSERRRYHGETDALVAEKAKRLLEEGITPILCVGEPLEVREKGEAVPYTLRQLRGSLEGVEPPGPEALVIAYEPVWAIGTGKNATPEDAEAMHQAIRKALSERYGEAFASRVRILYGGSVNPKNFADLLSMPNVDGGLVGGASLELESFLALLRIAG
# notes: as for B5
# B8: ScTIM (Saccharomyces cerevisiae S288C) (protein)
# chain: ARTFFVGGNFKLNGSKQSIKEIVERLNTASIPENVEVVICPPATYLDYSVSLVKKPQVTVGAQNAYLKASGAFTGENSVDQIKDVGAKWVILGHSERRSYFHEDDKFIADKTKFALGQGVGVILCIGETLEEKKAGKTLDVVERQLNAVLEEVKDWTNVVVAYEPVWAIGTGLAATPEDAQDIHASIRKFLASKLGDKAASELRILYGGSANGSNAVTFKDKADVDGFLVGGASLKPEFVDIINSRN
# notes: recombinant, E. coli BL21(DE3)pLysS, plasmid pKK233-3, purified; dimer plus higher aggregates
# Tests used:
# Assay in all cases: purified protein
# Conditions in all cases: GAP to DHAP direction, 25 °C, 100 mM TEA, 10 mM EDTA, 0.2 mM NADH, GAP 0.3 to 3 mM
# purified protein [1] = substrate: O=C[C@H](O)COP(=O)(O)O; type: biochemical, Trypanosoma cruzi
# purified protein [2] = substrate: O=C[C@H](O)COP(=O)(O)O; type: biochemical, Entamoeba histolytica
# purified protein [3] = substrate: O=C[C@H](O)COP(=O)(O)O; type: biochemical, Plasmodium falciparum
# purified protein [4] = substrate: O=C[C@H](O)COP(=O)(O)O; type: biochemical, Taenia solium
# purified protein [5] = substrate: O=C[C@H](O)COP(=O)(O)O; type: biochemical, Leishmania mexicana
# purified protein [6] = substrate: O=C[C@H](O)COP(=O)(O)O; type: biochemical, Trypanosoma brucei
# purified protein [7] = substrate: O=C[C@H](O)COP(=O)(O)O; type: biochemical, Thermus thermophilus
# purified protein [8] = substrate: O=C[C@H](O)COP(=O)(O)O; type: biochemical, Saccharomyces cerevisiae
protein,measurement,setting,value
B1,Km,purified protein [1],440 ± 50 µM
same,kcat,purified protein [1],6000 ± 230 s⁻¹
same,kcat/Km,purified protein [1],1.36e+07 M⁻¹ s⁻¹
B2,Km,purified protein [2],140 ± 30 µM
same,kcat,purified protein [2],3650 ± 254 s⁻¹
same,kcat/Km,purified protein [2],2.5e+07 M⁻¹ s⁻¹
B3,Km,purified protein [3],810 ± 40 µM
same,kcat,purified protein [3],5846 ± 39 s⁻¹
same,kcat/Km,purified protein [3],7.3e+06 M⁻¹ s⁻¹
B4,Km,purified protein [4],520 ± 30 µM
same,kcat,purified protein [4],2460 ± 101 s⁻¹
same,kcat/Km,purified protein [4],4.7e+06 M⁻¹ s⁻¹
B5,Km,purified protein [5],470 ± 10 µM
same,kcat,purified protein [5],2800 ± 164 s⁻¹
same,kcat/Km,purified protein [5],5.9e+06 M⁻¹ s⁻¹
B6,Km,purified protein [6],450 ± 50 µM
same,kcat,purified protein [6],5170 ± 117 s⁻¹
same,kcat/Km,purified protein [6],1.15e+07 M⁻¹ s⁻¹
B7,Km,purified protein [7],60 ± 10 µM
same,kcat,purified protein [7],1788 ± 0.9 s⁻¹
same,kcat/Km,purified protein [7],3e+07 M⁻¹ s⁻¹
B8,Km,purified protein [8],790 ± 100 µM
same,kcat,purified protein [8],8690 ± 142 s⁻¹
same,kcat/Km,purified protein [8],1.1e+07 M⁻¹ s⁻¹
